Assay [1] has as its target full-length protein mycoplasma pneumonia P30 (amino acids 1-274; SEQ ID NO: 1) (Mycoplasma pneumoniae) (UniProt P75330). As to the kind of experiment: ELISA, full-length P30 coated, 5 ug/mL P30(a), no peptide (0 point of the peptide 1 series). A general note: ELISA stands for enzyme-linked immunosorbent assay.
Assay [2] has as its target P30 protein of Mycoplasma pneumoniae as present in Mycoplasma pneumoniae analytes (deactivated Mycoplasma pneumoniae Antigen (FH), Meridian; pharyngeal swabs of infected subjects) (Mycoplasma pneumoniae) (UniProt P75330). The assay can be described thus: immunochromatography sandwich (Ex. 1), label P30(a), detection P30(a); deactivated Mycoplasma pneumoniae (FH); NP-40/MN-811 diluent.

Assay [3] shares this target. The assay can be described thus: immunochromatography sandwich (Ex. 1), label P30(a), detection P30(a); pharyngeal swab Subject 1, diluted 20 times.
The target is the same in assay [4]. As to the kind of experiment: immunochromatography sandwich (Ex. 1), label P30(a), detection P30(a); pharyngeal swab Subject 2, diluted 20 times.
Assay [5] has the same target. The assay can be described thus: immunochromatography sandwich (Ex. 2), label P30(a), detection P30(a); pharyngeal swab Subject 2; Triton X-100/Tween 20 diluent.
Assay [6] has as its target mycoplasma pneumonia P30 (purified protein P30Ag produced by expressing amino acids 96-274 with Escherichia coli) (Mycoplasma pneumoniae) (UniProt P75330). The assay can be described thus: immunochromatography sandwich (Ex. 3), label P30(a), detection P30(a); analyte P30Ag; Triton X-100/Tween 20 diluent.
Assay [7] deals with P30 protein of Mycoplasma pneumoniae as present in Mycoplasma pneumoniae analytes (deactivated Mycoplasma pneumoniae Antigen (FH), Meridian; pharyngeal swabs of infected subjects) (Mycoplasma pneumoniae) (UniProt P75330). As to the kind of experiment: immunochromatography sandwich (Ex. 2), label P30(a), detection P30(a); deactivated Mycoplasma pneumoniae (FH); Triton X-100/Tween 20 diluent.

Assay [8] has the same target. The assay can be described thus: immunochromatography sandwich (Ex. 2), label P30(a), detection P30(a); pharyngeal swab Subject 1; Triton X-100/Tween 20 diluent.
Assay [9] concerns the target full-length protein mycoplasma pneumonia P30 (amino acids 1-274; SEQ ID NO: 1) (Mycoplasma pneumoniae) (UniProt P75330). The assay can be described thus: ELISA, full-length P30 coated, 5 ug/mL P30(a), no peptide (0 point of the peptide 2 series).
Assay [10] has as its target mycoplasma pneumonia P30 (purified protein P30Ag produced by expressing amino acids 96-274 with Escherichia coli) (Mycoplasma pneumoniae) (UniProt P75330). The assay can be described thus: ELISA, P30Ag coated at 4 ng/mL, antibody 5 ug/mL, anti-mouse IgG-peroxidase.
For assay [11] the target is unchanged. As to the kind of experiment: immunochromatography sandwich, P30(a)-gold label and P30(a) detection line, P30Ag 10 pg/mL, no peptide.
Assay [12] addresses antibody P30(b) (Fucal Research product Mp-P30-9-AB). The assay can be described thus: competitive inhibition ELISA, full-length P30 coated, 5 ug/mL P30(b) + peptide 2 at x10 the antibody concentration.
In assay [13] the target is antibody P30(a) (Fucal Research product Mp-P30-3-AB). As to the kind of experiment: competitive inhibition ELISA, full-length P30 coated, 5 ug/mL P30(a) + peptide 2 at x10 the antibody concentration.
Assay [14] concerns the target antibody P30(b) (Fucal Research product Mp-P30-9-AB). As to the kind of experiment: competitive inhibition ELISA, full-length P30 coated, 5 ug/mL P30(b) + peptide 2 at x160 the antibody concentration.
In assay [15] the target is antibody P30(a) (Fucal Research product Mp-P30-3-AB). As to the kind of experiment: immunochromatography competition, 400 ng peptide 2 developed with P30Ag 10 pg/mL, P30(a) label and detection.
In assay [16] the target is antibody P30(b) (Fucal Research product Mp-P30-9-AB). As to the kind of experiment: competitive inhibition ELISA, full-length P30 coated, 5 ug/mL P30(b) + peptide 2 at x40 the antibody concentration.
For assay [17] the target is unchanged. As to the kind of experiment: competitive inhibition ELISA, full-length P30 coated, 5 ug/mL P30(b) + peptide 2 at x80 the antibody concentration.
The target is the same in assay [18]. The assay can be described thus: immunochromatography competition, 400 ng peptide 2 developed with P30Ag 10 pg/mL, P30(b) label and detection.
The target in assay [19] is antibody P30(a) (Fucal Research product Mp-P30-3-AB). The assay can be described thus: competitive inhibition ELISA, full-length P30 coated, 5 ug/mL P30(a) + peptide 2 at x160 the antibody concentration.
The target in assay [20] is antibody P30(b) (Fucal Research product Mp-P30-9-AB). The assay can be described thus: competitive inhibition ELISA, full-length P30 coated, 5 ug/mL P30(b) + peptide 2 at x20 the antibody concentration.
Assay [21] shares this target. The assay can be described thus: competitive inhibition ELISA, full-length P30 coated, 5 ug/mL P30(b) + peptide 2 at x1 the antibody concentration.
Assay [22] has the same target. As to the kind of experiment: competitive inhibition ELISA, full-length P30 coated, 5 ug/mL P30(b) + peptide 2 at x320 the antibody concentration.
For assay [23], the target named is antibody P30(a) (Fucal Research product Mp-P30-3-AB). The assay can be described thus: competitive inhibition ELISA, full-length P30 coated, 5 ug/mL P30(a) + peptide 2 at x1 the antibody concentration.
For assay [24], the target named is antibody P30(b) (Fucal Research product Mp-P30-9-AB). As to the kind of experiment: competitive inhibition ELISA, full-length P30 coated at 10 ng/mL, 5 ug/mL P30(b) + peptide 2 at 40 times the antibody amount.
The target is the same in assay [25]. The assay can be described thus: competitive inhibition ELISA, full-length P30 coated, 5 ug/mL P30(b) + peptide 2 at x640 the antibody concentration.
The target of assay [26] is antibody P30(a) (Fucal Research product Mp-P30-3-AB). The assay can be described thus: competitive inhibition ELISA, full-length P30 coated, 5 ug/mL P30(a) + peptide 2 at x20 the antibody concentration.
Assay [27] has the same target. As to the kind of experiment: competitive inhibition ELISA, full-length P30 coated, 5 ug/mL P30(a) + peptide 2 at x80 the antibody concentration.
Assay [28] shares this target. The assay can be described thus: competitive inhibition ELISA, full-length P30 coated, 5 ug/mL P30(a) + peptide 2 at x40 the antibody concentration.
The target is the same in assay [29]. As to the kind of experiment: competitive inhibition ELISA, full-length P30 coated, 5 ug/mL P30(a) + peptide 2 at x320 the antibody concentration.
Assay [30] has the same target. As to the kind of experiment: competitive inhibition ELISA, full-length P30 coated, 5 ug/mL P30(a) + peptide 2 at x640 the antibody concentration.
For assay [31] the target is unchanged. As to the kind of experiment: competitive inhibition ELISA, full-length P30 coated at 4 ng/mL, 5 ug/mL P30(a) + peptide 2 at 40 times the antibody amount.

For “antibody P30(a) (Fucal Research product Mp-P30-3-AB)”, the Color intensity (Abs) in assay [1] and in assay [9] was 0.411 Abs throughout. Moreover, the Color intensity (mAbs) was 273 mAbs in assay [2]; 41.8 mAbs in assay [3]; 28.7 mAbs in [4]; 51.7 mAbs in [5]; 180 mAbs in assay [6]; 490 mAbs in assay [7]. In assay [8], this molecule came in with a Color intensity (mAbs) of 117 mAbs. Also, the absorbance at 450 nm after subtracting the blank in assay [10] is 0.403 Abs. Further, the Color intensity after 15 min in [11] came out at 251 mAbs.

B1: Peptide 2 (SEQ ID NO: 7: …) (peptide)
peptide: PGMAPRPGFPPQPGMAPR
For the molecule B1, the Color intensity (Abs) in assay [12] turned out to be 0.184 Abs; in assay [13], 0.341 Abs; in assay [14], 0.125 Abs; in assay [16] it was 0.163 Abs; in assay [17], 0.133 Abs; in assay [19], 0.172 Abs. Further, the Color intensity (Abs) is 0.186 Abs in assay [20]; 0.199 Abs in [21]; 0.11 Abs in assay [22]; 0.401 Abs in assay [23]; 0.114 Abs in assay [25]; 0.29 Abs in assay [26]. Moreover, the Color intensity (Abs) in assay [27] worked out at 0.199 Abs; in assay [28], 0.26 Abs; in assay [29], 0.16 Abs; in assay [30], 0.18 Abs. In addition, the Percentage reduction of color intensity (%) in assay [12] was 12%; in assay [13] it was 17%; in assay [14], 40%; in [16] it was 22%; in [17], 36%; in [19], 58%. The Percentage reduction of color intensity (%) in [20] came out at 11%; in [21], 4%; in assay [22] it was 47%; in [23], 2%; in assay [25], 45%; in assay [26], 29%. The Percentage reduction of color intensity (%) in [27] turned out to be 52%; in [28], 37%; in assay [29], 61%; in assay [30], 56%. Moreover, the results for the Color intensity after 15 min in assay [15] and in [18] were 96.7 mAbs and 31.3 mAbs, respectively. Further, the percentage reduction of absorbance in assay [24] was 22%; in [31], over 30%.

The record behind these values is US20180172684A1.
